In patent publication US10919943B2, “Mutant proteins enabling agrochemical control of plant gene expression” (The Regents of the University of California, priority 2016, dated 2021):

Tested on: HAB1
Assay: Yeast two hybrid of pBD-PYR1 site saturation mutants with pACT-HAB1 on 10 μM ABA, β-galactosidase staining
Type: cell-based, Arabidopsis
Parameters: key: x: Mutations in PYR1 that disrupt ABA-induced binding to PYR1 to HAB1
Details: S. cerevisiae Y190, 10 μM ABA; dead = lack of visible staining in comparison to wild type control
In short: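 Binding was read by β-galactosidase staining of chloroform-lysed colonies after 2 days at 30° C on SD (-Leu, -Trp) plates containing 10 μM (+)-ABA. Yeast strain Y190 carried the BD-PYR1 single-substitution mutants plus the AD-HAB1 fusion. Absence of staining versus the wild-type control defined "dead" mutants.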

Molecule	Mutations in PYR1 that disrupt ABA-induced binding to PYR1 to HAB1
H115K: PYR1 mutant (protein, UniProt O49686 1-191, looked up, variant H115K) Abscisic acid receptor PYR1: MPSELTPEERSELKNSIAEFHTYQLDPGSCSSLHAQRIHAPPELVWSIVRRFDKPQTYKHFIKSCSVEQNFEMRVGCTRDVIVISGLPANTSTERLDILDDERRVTGFSIIGGEKRLTNYKSVTTVHRFEKENRIWTVVLESYVVDMPEGNSEDDTRMFADTVVKLNLQKLATVAEAMARNSGDGSGSQVT	x
R116A: PYR1 mutant (protein, UniProt O49686 1-191, looked up, variant R116A) Abscisic acid receptor PYR1: MPSELTPEERSELKNSIAEFHTYQLDPGSCSSLHAQRIHAPPELVWSIVRRFDKPQTYKHFIKSCSVEQNFEMRVGCTRDVIVISGLPANTSTERLDILDDERRVTGFSIIGGEHALTNYKSVTTVHRFEKENRIWTVVLESYVVDMPEGNSEDDTRMFADTVVKLNLQKLATVAEAMARNSGDGSGSQVT	x
R116P: PYR1 mutant (protein, UniProt O49686 1-191, looked up, variant R116P) Abscisic acid receptor PYR1: MPSELTPEERSELKNSIAEFHTYQLDPGSCSSLHAQRIHAPPELVWSIVRRFDKPQTYKHFIKSCSVEQNFEMRVGCTRDVIVISGLPANTSTERLDILDDERRVTGFSIIGGEHPLTNYKSVTTVHRFEKENRIWTVVLESYVVDMPEGNSEDDTRMFADTVVKLNLQKLATVAEAMARNSGDGSGSQVT	x
R116S: PYR1 mutant (protein, UniProt O49686 1-191, looked up, variant R116S) Abscisic acid receptor PYR1: MPSELTPEERSELKNSIAEFHTYQLDPGSCSSLHAQRIHAPPELVWSIVRRFDKPQTYKHFIKSCSVEQNFEMRVGCTRDVIVISGLPANTSTERLDILDDERRVTGFSIIGGEHSLTNYKSVTTVHRFEKENRIWTVVLESYVVDMPEGNSEDDTRMFADTVVKLNLQKLATVAEAMARNSGDGSGSQVT	x
R116T: PYR1 mutant (protein, UniProt O49686 1-191, looked up, variant R116T) Abscisic acid receptor PYR1: MPSELTPEERSELKNSIAEFHTYQLDPGSCSSLHAQRIHAPPELVWSIVRRFDKPQTYKHFIKSCSVEQNFEMRVGCTRDVIVISGLPANTSTERLDILDDERRVTGFSIIGGEHTLTNYKSVTTVHRFEKENRIWTVVLESYVVDMPEGNSEDDTRMFADTVVKLNLQKLATVAEAMARNSGDGSGSQVT	x
R116V: PYR1 mutant (protein, UniProt O49686 1-191, looked up, variant R116V) Abscisic acid receptor PYR1: MPSELTPEERSELKNSIAEFHTYQLDPGSCSSLHAQRIHAPPELVWSIVRRFDKPQTYKHFIKSCSVEQNFEMRVGCTRDVIVISGLPANTSTERLDILDDERRVTGFSIIGGEHVLTNYKSVTTVHRFEKENRIWTVVLESYVVDMPEGNSEDDTRMFADTVVKLNLQKLATVAEAMARNSGDGSGSQVT	x
R116W: PYR1 mutant (protein, UniProt O49686 1-191, looked up, variant R116W) Abscisic acid receptor PYR1: MPSELTPEERSELKNSIAEFHTYQLDPGSCSSLHAQRIHAPPELVWSIVRRFDKPQTYKHFIKSCSVEQNFEMRVGCTRDVIVISGLPANTSTERLDILDDERRVTGFSIIGGEHWLTNYKSVTTVHRFEKENRIWTVVLESYVVDMPEGNSEDDTRMFADTVVKLNLQKLATVAEAMARNSGDGSGSQVT	x
R116C: PYR1 mutant (protein, UniProt O49686 1-191, looked up, variant R116C) Abscisic acid receptor PYR1: MPSELTPEERSELKNSIAEFHTYQLDPGSCSSLHAQRIHAPPELVWSIVRRFDKPQTYKHFIKSCSVEQNFEMRVGCTRDVIVISGLPANTSTERLDILDDERRVTGFSIIGGEHCLTNYKSVTTVHRFEKENRIWTVVLESYVVDMPEGNSEDDTRMFADTVVKLNLQKLATVAEAMARNSGDGSGSQVT	x
R116Y: PYR1 mutant (protein, UniProt O49686 1-191, looked up, variant R116Y) Abscisic acid receptor PYR1: MPSELTPEERSELKNSIAEFHTYQLDPGSCSSLHAQRIHAPPELVWSIVRRFDKPQTYKHFIKSCSVEQNFEMRVGCTRDVIVISGLPANTSTERLDILDDERRVTGFSIIGGEHYLTNYKSVTTVHRFEKENRIWTVVLESYVVDMPEGNSEDDTRMFADTVVKLNLQKLATVAEAMARNSGDGSGSQVT	x
R116D: PYR1 mutant (protein, UniProt O49686 1-191, looked up, variant R116D) Abscisic acid receptor PYR1: MPSELTPEERSELKNSIAEFHTYQLDPGSCSSLHAQRIHAPPELVWSIVRRFDKPQTYKHFIKSCSVEQNFEMRVGCTRDVIVISGLPANTSTERLDILDDERRVTGFSIIGGEHDLTNYKSVTTVHRFEKENRIWTVVLESYVVDMPEGNSEDDTRMFADTVVKLNLQKLATVAEAMARNSGDGSGSQVT	x
R116E: PYR1 mutant (protein, UniProt O49686 1-191, looked up, variant R116E) Abscisic acid receptor PYR1: MPSELTPEERSELKNSIAEFHTYQLDPGSCSSLHAQRIHAPPELVWSIVRRFDKPQTYKHFIKSCSVEQNFEMRVGCTRDVIVISGLPANTSTERLDILDDERRVTGFSIIGGEHELTNYKSVTTVHRFEKENRIWTVVLESYVVDMPEGNSEDDTRMFADTVVKLNLQKLATVAEAMARNSGDGSGSQVT	x
R116F: PYR1 mutant (protein, UniProt O49686 1-191, looked up, variant R116F) Abscisic acid receptor PYR1: MPSELTPEERSELKNSIAEFHTYQLDPGSCSSLHAQRIHAPPELVWSIVRRFDKPQTYKHFIKSCSVEQNFEMRVGCTRDVIVISGLPANTSTERLDILDDERRVTGFSIIGGEHFLTNYKSVTTVHRFEKENRIWTVVLESYVVDMPEGNSEDDTRMFADTVVKLNLQKLATVAEAMARNSGDGSGSQVT	x
R116G: PYR1 mutant (protein, UniProt O49686 1-191, looked up, variant R116G) Abscisic acid receptor PYR1: MPSELTPEERSELKNSIAEFHTYQLDPGSCSSLHAQRIHAPPELVWSIVRRFDKPQTYKHFIKSCSVEQNFEMRVGCTRDVIVISGLPANTSTERLDILDDERRVTGFSIIGGEHGLTNYKSVTTVHRFEKENRIWTVVLESYVVDMPEGNSEDDTRMFADTVVKLNLQKLATVAEAMARNSGDGSGSQVT	x
R116H: PYR1 mutant (protein, UniProt O49686 1-191, looked up, variant R116H) Abscisic acid receptor PYR1: MPSELTPEERSELKNSIAEFHTYQLDPGSCSSLHAQRIHAPPELVWSIVRRFDKPQTYKHFIKSCSVEQNFEMRVGCTRDVIVISGLPANTSTERLDILDDERRVTGFSIIGGEHHLTNYKSVTTVHRFEKENRIWTVVLESYVVDMPEGNSEDDTRMFADTVVKLNLQKLATVAEAMARNSGDGSGSQVT	x
R116I: PYR1 mutant (protein, UniProt O49686 1-191, looked up, variant R116I) Abscisic acid receptor PYR1: MPSELTPEERSELKNSIAEFHTYQLDPGSCSSLHAQRIHAPPELVWSIVRRFDKPQTYKHFIKSCSVEQNFEMRVGCTRDVIVISGLPANTSTERLDILDDERRVTGFSIIGGEHILTNYKSVTTVHRFEKENRIWTVVLESYVVDMPEGNSEDDTRMFADTVVKLNLQKLATVAEAMARNSGDGSGSQVT	x
L117A: PYR1 mutant (protein, UniProt O49686 1-191, looked up, variant L117A) Abscisic acid receptor PYR1: MPSELTPEERSELKNSIAEFHTYQLDPGSCSSLHAQRIHAPPELVWSIVRRFDKPQTYKHFIKSCSVEQNFEMRVGCTRDVIVISGLPANTSTERLDILDDERRVTGFSIIGGEHRATNYKSVTTVHRFEKENRIWTVVLESYVVDMPEGNSEDDTRMFADTVVKLNLQKLATVAEAMARNSGDGSGSQVT	x
L117N: PYR1 mutant (protein, UniProt O49686 1-191, looked up, variant L117N) Abscisic acid receptor PYR1: MPSELTPEERSELKNSIAEFHTYQLDPGSCSSLHAQRIHAPPELVWSIVRRFDKPQTYKHFIKSCSVEQNFEMRVGCTRDVIVISGLPANTSTERLDILDDERRVTGFSIIGGEHRNTNYKSVTTVHRFEKENRIWTVVLESYVVDMPEGNSEDDTRMFADTVVKLNLQKLATVAEAMARNSGDGSGSQVT	x
L117P: PYR1 mutant (protein, UniProt O49686 1-191, looked up, variant L117P) Abscisic acid receptor PYR1: MPSELTPEERSELKNSIAEFHTYQLDPGSCSSLHAQRIHAPPELVWSIVRRFDKPQTYKHFIKSCSVEQNFEMRVGCTRDVIVISGLPANTSTERLDILDDERRVTGFSIIGGEHRPTNYKSVTTVHRFEKENRIWTVVLESYVVDMPEGNSEDDTRMFADTVVKLNLQKLATVAEAMARNSGDGSGSQVT	x
L117Q: PYR1 mutant (protein, UniProt O49686 1-191, looked up, variant L117Q) Abscisic acid receptor PYR1: MPSELTPEERSELKNSIAEFHTYQLDPGSCSSLHAQRIHAPPELVWSIVRRFDKPQTYKHFIKSCSVEQNFEMRVGCTRDVIVISGLPANTSTERLDILDDERRVTGFSIIGGEHRQTNYKSVTTVHRFEKENRIWTVVLESYVVDMPEGNSEDDTRMFADTVVKLNLQKLATVAEAMARNSGDGSGSQVT	x
L117R: PYR1 mutant (protein, UniProt O49686 1-191, looked up, variant L117R) Abscisic acid receptor PYR1: MPSELTPEERSELKNSIAEFHTYQLDPGSCSSLHAQRIHAPPELVWSIVRRFDKPQTYKHFIKSCSVEQNFEMRVGCTRDVIVISGLPANTSTERLDILDDERRVTGFSIIGGEHRRTNYKSVTTVHRFEKENRIWTVVLESYVVDMPEGNSEDDTRMFADTVVKLNLQKLATVAEAMARNSGDGSGSQVT	x
L117S: PYR1 mutant (protein, UniProt O49686 1-191, looked up, variant L117S) Abscisic acid receptor PYR1: MPSELTPEERSELKNSIAEFHTYQLDPGSCSSLHAQRIHAPPELVWSIVRRFDKPQTYKHFIKSCSVEQNFEMRVGCTRDVIVISGLPANTSTERLDILDDERRVTGFSIIGGEHRSTNYKSVTTVHRFEKENRIWTVVLESYVVDMPEGNSEDDTRMFADTVVKLNLQKLATVAEAMARNSGDGSGSQVT	x
